Key:
[1] = molecular target: T1, human VEGF-A165 (human, UniProt P15692 207-395); assay: SPR, VEGF-A immobilised, positive control, 1:1 dissociation fit
T1 construct: R&D Systems; homodimer; also called recombinant human VEGF-A

[2] = molecular target: T1, human VEGF-A165; assay: SPR (Biacore T100), VEGF-A immobilised, VEGFR-2-Fc5 analyte, bivalent analyte fit

- koff [1]: ~0.0002 s⁻¹
- Ka [2]: 1e+08 M⁻¹
- Kd [2]: 10 nM
- koff [2]: 0.0002 s⁻¹
- kon [2]: 20000 M⁻¹ s⁻¹
B1: human VEGFR-2-Fc5 (Fc fusion)
chain: not shown
notes: also called VEGF Receptor-2

From patent US20110177074A1 (ZymoGenetics, published 2011)
